Substrate: Nc1ncnc2c1ncn2[C@@H]1O[C@H](COP(=O)(O)OP(=O)(O)O[C@H]2O[C@H](CO)[C@@H](O)[C@H](O)[C@H]2O)[C@@H](O)[C@H]1O
Experiment: Pi release by alkaline phosphatase from ADP, Malachite Green assay
Assay type: biochemical, Ostreococcus tauri
Details: 2 mg/ml glycogen as acceptor, 50 mM BICINE pH 8.0, 30°C, nH 0.57
Excerpt: Pi release by alkaline phosphatase from ADP, Malachite Green assay on OsttaSSIII-B CD

B1: OsttaSSIII-B CD (Ostreococcus tauri) (protein)
chain: LHVCHIAVEMAPIAKVGGLADVVTAIGRAIQDNGHLVEIILPKYQFFNNSVLLGGKEYETHFDWAGTTIRVEKCKVEGLQCFFIEPQNNMFQTDSVYGRNDDAHRFNFFCNAALEFLVRTARQPDILHCHDWSSAEVARAYWEHYHHNGLTKPKVAFTIHNMNYGQAKLGEAVHHSQVATTVSPSYAGEVRGSPVIGNNGHKFTGVRNGIDPEIWDPETDIFVPVKYNADNQEEGKAAARAELRQRAGMTGWDDKPIVGVVSRLTAQKGVHLIKHAAHHTLSRGGQFVLLGSAPDPKIQGEFNGLANQLGGEDTGFFFAFDEPLSHLMYAGCDVILVPSMFEPCGLTQMISMRYGAVPVVRATGGLRDTVFDVDNEKERAAWEVGGSTDWKTDGDMTNGFSFEGTDEGSLNYALDRCLDAFYNDREWFRSLQKRVMLQDWSWNRPANDYEELYYKMIGR
- K0.5: 0.12 ± 0.04 mM
- Vmax: 0.76 µmol/min/mg
